Test results: patent US20260297205 (published 2026)

B1: GH35 (antibody, V domains shown)
VH: EVQLVESGGGLVQPGGSLRLSCAASGFNVYYSSIHWVRQAPGKGLEWVASIYSYSGYTSYADSVKGRFTISADTSKNTAYLQMNSLRAEDTAVYYCARWSYKAMDYWGQGTLVTV
VL: DIQMTQSPSSLSASVGDRVTITCRASQSVSSAVAWYQQKPGKAPKLLIYSASSLYSGVPSRFSGSRSGTDFTLTISSLQPEDFATYYCQQDYYAPITFGQGTKVEIKR
B2: GH16 (antibody, V domains shown)
VH: EVQLVESGGGLVQPGGSLRLSCAASGFNLSSYYIHWVRQAPGKGLEWVASIYPSYGYTSYADSVKGRFTISADTSKNTAYLQMNSLRAEDTAVYYCARWGKWYGYPFSGLDYWGQGTLVTV
VL: DIQMTQSPSSLSASVGDRVTITCRASQSVSSAVAWYQQKPGKAPKLLIYSASSLYSGVPSRFSGSRSGTDFTLTISSLQPEDFATYYCQQDWYFPITFGQGTKVEIKR
B3: GH33 (antibody, V domains shown)
VH: EVQLVESGGGLVQPGGSLRLSCAASGFNFYSSYIHWVRQAPGKGLEWVASIYSYSGYTSYADSVKGRFTISADTSKNTAYLQMNSLRAEDTAVYYCARYWYYYNGMDYWGQGTLVTV
VL: DIQMTQSPSSLSASVGDRVTITCRASQSVSSAVAWYQQKPGKAPKLLIYSASSLYSGVPSRFSGSRSGTDFTLTISSLQPEDFATYYCQQIRYVPITFGQGTKVEIKR
B4: GH5 (antibody, V domains shown)
VH: EVQLVESGGGLVQPGGSLRLSCAASGFNVSSYYIHWVRQAPGKGLEWVASIYSYYGYTSYADSVKGRFTISADTSKNTAYLQMNSLRAEDTAVYYCARGDNYSWAMDYWGQGTLVTV
VL: DIQMTQSPSSLSASVGDRVTITCRASQSVSSAVAWYQQKPGKAPKLLIYSASSLYSGVPSRFSGSRSGTDFTLTISSLQPEDFATYYCQQSWQYPFTFGQGTKVEIKR
B5: GH11 (antibody, V domains shown)
VH: EVQLVESGGGLVQPGGSLRLSCAASGFNIYSSSIHWVRQAPGKGLEWVASISSSSGSTSYADSVKGRFTISADTSKNTAYLQMNSLRAEDTAVYYCARKYSGYYSNWYYPALDYWGQGTLVTV
VL: DIQMTQSPSSLSASVGDRVTITCRASQSVSSAVAWYQQKPGKAPKLLIYSASSLYSGVPSRFSGSRSGTDFTLTISSLQPEDFATYYCQQSSSSLITFGQGTKVEIKR
B6: GH32 (antibody, V domains shown)
VH: EVQLVESGGGLVQPGGSLRLSCAASGFNFYSSYIHWVRQAPGKGLEWVASIYSYSGYTSYADSVKGRFTISADTSKNTAYLQMNSLRAEDTAVYYCARYKYMGMDYWGQGTLVTV
VL: DIQMTQSPSSLSASVGDRVTITCRASQSVSSAVAWYQQKPGKAPKLLIYSASSLYSGVPSRFSGSRSGTDFTLTISSLQPEDFATYYCQQSSWMPITFGQGTKVEIKR
B7: GH22 (antibody, V domains shown)
VH: EVQLVESGGGLVQPGGSLRLSCAASGFNFSSSYIHWVRQAPGKGLEWVASIYSYSGYTSYADSVKGRFTISADTSKNTAYLQMNSLRAEDTAVYYCARYRFIGAMDYWGQGTLVTV
VL: DIQMTQSPSSLSASVGDRVTITCRASQSVSSAVAWYQQKPGKAPKLLIYSASSLYSGVPSRFSGSRSGTDFTLTISSLQPEDFATYYCQQSHWSPITFGQGTKVEIKR
B8: GH7 (antibody, V domains shown)
VH: EVQLVESGGGLVQPGGSLRLSCAASGFNVYSSSIHWVRQAPGKGLEWVASIYSYSGYTSYADSVKGRFTISADTSKNTAYLQMNSLRAEDTAVYYCARGRYSWFALDYWGQGTLVTV
VL: DIQMTQSPSSLSASVGDRVTITCRASQSVSSAVAWYQQKPGKAPKLLIYSASSLYSGVPSRFSGSRSGTDFTLTISSLQPEDFATYYCQQYWSFPITFGQGTKVEIKR
B9: GH15 (antibody, V domains shown)
VH: EVQLVESGGGLVQPGGSLRLSCAASGFNVSSSYIHWVRQAPGKGLEWVASIYSYSGYTSYADSVKGRFTISADTSKNTAYLQMNSLRAEDTAVYYCARTSYGRGALDYWGQGTLVTV
VL: DIQMTQSPSSLSASVGDRVTITCRASQSVSSAVAWYQQKPGKAPKLLIYSASSLYSGVPSRFSGSRSGTDFTLTISSLQPEDFATYYCQQWSWYPITFGQGTKVEIKR
B10: GH3 (antibody, V domains shown)
VH: EVQLVESGGGLVQPGGSLRLSCAASGFNVSSSSIHWVRQAPGKGLEWVAYISSYYGYTSYADSVKGRFTISADTSKNTAYLQMNSLRAEDTAVYYCAREGWYWWAMDYWGQGTLVTV
VL: DIQMTQSPSSLSASVGDRVTITCRASQSVSSAVAWYQQKPGKAPKLLIYSASSLYSGVPSRFSGSRSGTDFTLTISSLQPEDFATYYCQQAWYLPITFGQGTKVEIKR
B11: GH4 (antibody, V domains shown)
VH: EVQLVESGGGLVQPGGSLRLSCAASGFNVSSSYIHWVRQAPGKGLEWVASIYSSYGYTSYADSVKGRFTISADTSKNTAYLQMNSLRAEDTAVYYCARESWGSGYYTWAMDYWGQGTLVTV
VL: DIQMTQSPSSLSASVGDRVTITCRASQSVSSAVAWYQQKPGKAPKLLIYSASSLYSGVPSRFSGSRSGTDFTLTISSLQPEDFATYYCQQSWRYPFTFGQGTKVEIKR
B12: GH24 (antibody, V domains shown)
VH: EVQLVESGGGLVQPGGSLRLSCAASGFNVSSSSIHWVRQAPGKGLEWVASIYSSYGYTSYADSVKGRFTISADTSKNTAYLQMNSLRAEDTAVYYCARGDRYVWAMDYWGQGTLVTV
VL: DIQMTQSPSSLSASVGDRVTITCRASQSVSSAVAWYQQKPGKAPKLLIYSASSLYSGVPSRFSGSRSGTDFTLTISSLQPEDFATYYCQQSSSYPFTFGQGTKVEIKR
B13: GH34 (antibody, V domains shown)
VH: EVQLVESGGGLVQPGGSLRLSCAASGFNFSYSSIHWVRQAPGKGLEWVASIYPSYGYTSYADSVKGRFTISADTSKNTAYLQMNSLRAEDTAVYYCARYYYFGMDYWGQGTLVTV
VL: DIQMTQSPSSLSASVGDRVTITCRASQSVSSAVAWYQQKPGKAPKLLIYSASSLYSGVPSRFSGSRSGTDFTLTISSLQPEDFATYYCQQSWSMPLTFGQGTKVEIKR
B14: GH2 (antibody, V domains shown)
VH: EVQLVESGGGLVQPGGSLRLSCAASGFNVSSSYIHWVRQAPGKGLEWVASIYSYYGYTSYADSVKGRFTISADTSKNTAYLQMNSLRAEDTAVYYCARENYGNWRSMYSGMDYWGQGTLVTV
VL: DIQMTQSPSSLSASVGDRVTITCRASQSVSSAVAWYQQKPGKAPKLLIYSASSLYSGVPSRFSGSRSGTDFTLTISSLQPEDFATYYCQQSYFLPFTFGQGTKVEIKR
B15: GH6 (antibody, V domains shown)
VH: EVQLVESGGGLVQPGGSLRLSCAASGFNVSYSSIHWVRQAPGKGLEWVASIYSSYGYTSYADSVKGRFTISADTSKNTAYLQMNSLRAEDTAVYYCARGHGSMWAMDYWGQGTLVTV
VL: DIQMTQSPSSLSASVGDRVTITCRASQSVSSAVAWYQQKPGKAPKLLIYSASSLYSGVPSRFSGSRSGTDFTLTISSLQPEDFATYYCQQSWSLPFTFGQGTKVEIKR
B16: GH12 (antibody, V domains shown)
VH: EVQLVESGGGLVQPGGSLRLSCAASGFNLSSSYIHWVRQAPGKGLEWVASIYPYSGYTSYADSVKGRFTISADTSKNTAYLQMNSLRAEDTAVYYCARMYWTGALDYWGQGTLVTV
VL: DIQMTQSPSSLSASVGDRVTITCRASQSVSSAVAWYQQKPGKAPKLLIYSASSLYSGVPSRFSGSRSGTDFTLTISSLQPEDFATYYCQQSSYSPITFGQGTKVEIKR
B17: GH20 (antibody, V domains shown)
VH: EVQLVESGGGLVQPGGSLRLSCAASGFNVSSSYIHWVRQAPGKGLEWVASIYSYSGYTSYADSVKGRFTISADTSKNTAYLQMNSLRAEDTAVYYCARYKWYAMDYWGQGTLVTV
VL: DIQMTQSPSSLSASVGDRVTITCRASQSVSSAVAWYQQKPGKAPKLLIYSASSLYSGVPSRFSGSRSGTDFTLTISSLQPEDFATYYCQQSSWYPITFGQGTKVEIKR
B18: GH38 (antibody, V domains shown)
VH: EVQLVESGGGLVQPGGSLRLSCAASGFNVYSSSIHWVRQAPGKGLEWVASIYPSYGYTSYADSVKGRFTISADTSKNTAYLQMNSLRAEDTAVYYCARWHWGWGSYGWGMDYWGQGTLVTV
VL: DIQMTQSPSSLSASVGDRVTITCRASQSVSSAVAWYQQKPGKAPKLLIYSASSLYSGVPSRFSGSRSGTDFTLTISSLQPEDFATYYCQQQWYVPITFGQGTKVEIKR
B19: GH1 (antibody, V domains shown)
VH: EVQLVESGGGLVQPGGSLRLSCAASGFNFYYSSIHWVRQAPGKGLEWVAYIYSYSGYTSYADSVKGRFTISADTSKNTAYLQMNSLRAEDTAVYYCARYSWWGGMDYWGQGTLVTV
VL: DIQMTQSPSSLSASVGDRVTITCRASQSVSSAVAWYQQKPGKAPKLLIYSASSLYSGVPSRFSGSRSGTDFTLTISSLQPEDFATYYCQQSYSVPITFGQGTKVEIKR
B20: GH21 (antibody, V domains shown)
VH: EVQLVESGGGLVQPGGSLRLSCAASGFNVSSSYIHWVRQAPGKGLEWVASIYSYSGYTSYADSVKGRFTISADTSKNTAYLQMNSLRAEDTAVYYCARYMYYAMDYWGQGTLVTV
VL: DIQMTQSPSSLSASVGDRVTITCRASQSVSSAVAWYQQKPGKAPKLLIYSASSLYSGVPSRFSGSRSGTDFTLTISSLQPEDFATYYCQQSSWSPITFGQGTKVEIKR
B21: GH14 (antibody, V domains shown)
VH: EVQLVESGGGLVQPGGSLRLSCAASGFNFYSSSIHWVRQAPGKGLEWVASIYSYYGYTSYADSVKGRFTISADTSKNTAYLQMNSLRAEDTAVYYCARSGGYIGFDYWGQGTLVTV
VL: DIQMTQSPSSLSASVGDRVTITCRASQSVSSAVAWYQQKPGKAPKLLIYSASSLYSGVPSRFSGSRSGTDFTLTISSLQPEDFATYYCQQYWEYPFTFGQGTKVEIKR
B22: GH13 (antibody, V domains shown)
VH: EVQLVESGGGLVQPGGSLRLSCAASGFNFSSSSIHWVRQAPGKGLEWVASISSYYSSTYYADSVKGRFTISADTSKNTAYLQMNSLRAEDTAVYYCARQYTSPWHWYKAMDYWGQGTLVTV
VL: DIQMTQSPSSLSASVGDRVTITCRASQSVSSAVAWYQQKPGKAPKLLIYSASSLYSGVPSRFSGSRSGTDFTLTISSLQPEDFATYYCQQSSSSLITFGQGTKVEIKR

Each binder was assayed against human growth hormone (GH) (human, UniProt P01241) (assay: SPR, 20C).
human growth hormone (GH), sequence (P01241 27-217): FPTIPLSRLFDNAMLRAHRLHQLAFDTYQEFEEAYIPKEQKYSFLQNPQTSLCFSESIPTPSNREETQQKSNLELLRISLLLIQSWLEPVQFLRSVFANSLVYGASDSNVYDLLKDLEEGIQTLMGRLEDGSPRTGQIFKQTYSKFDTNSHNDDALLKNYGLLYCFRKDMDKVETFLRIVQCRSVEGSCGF
B1 gave a Kd of 14 nM.
B2 gave a Kd of 3.4 nM.
B3 was tested, and the Kd was 5.8 nM.
Work on B4 yielded a Kd of 4.9 nM.
B5 showed a Kd of 0.3 nM.
For B6, the Kd was 17 nM.
With B7 the Kd was 1.1 nM.
Work on B8 yielded a Kd of 6.1 nM.
Work on B9 yielded a Kd of 3.9 nM.
B10 was tested, and the Kd was 21 nM.
B11 gave a Kd of 5.4 nM.
With B12 the Kd was 1.3 nM.
For B13, the Kd was 20 nM.
Work on B14 yielded a Kd of 0.9 nM.
B15 gave a Kd of 0.04 nM.
B16 was tested, and the Kd was 0.08 nM.
B17 was tested, and the Kd was 1.9 nM.
Binder B18 has a Kd of 8.1 nM.
With B19 the Kd was 1.5 nM.
Binder B20 has a Kd of 7.5 nM.
With B21 the Kd was 0.7 nM.
B22 showed a Kd of 0.3 nM.
